The target in assay [1] is T1, Recombinant human HER3 extracellular domain (ECD) (human, UniProt P21860 20-643).
T1 construct: extracellular domain; Bought from R&D Systems; also called recombinant human HER3 ECD; HER3 receptor
In words: ELISA, recombinant human HER3 ECD coated at 50 ng/well, antibody from 3 nM to 6.5 pM, four-parameter fit. The procedure: Nunc Maxisorp plates were coated with 50 ng/well recombinant human HER3 ECD for 16 hours at 4° C. and were blocked with 2% BSA in PBS. Anti-HER3 antibodies GMB301 and H4B-121-emb were serially diluted from 0.5 μg/ml to 1 ng/ml (3 nM to 6.5 pM) and incubated 1 hour at 37° C.
(ELISA stands for enzyme-linked immunosorbent assay.)

In assay [2] the target is T2, human HER3-Fc (recombinant HER3 extracellular domain Fc fusion, R&D systems) (human, UniProt P21860 20-643).
T2 construct: extracellular domain; Bought reagent (R&D Systems); Coated on plates at 50 ng per well; not shown: Fc part of the bought fusion (R&D Systems)
T2 sequence (P21860 20-643): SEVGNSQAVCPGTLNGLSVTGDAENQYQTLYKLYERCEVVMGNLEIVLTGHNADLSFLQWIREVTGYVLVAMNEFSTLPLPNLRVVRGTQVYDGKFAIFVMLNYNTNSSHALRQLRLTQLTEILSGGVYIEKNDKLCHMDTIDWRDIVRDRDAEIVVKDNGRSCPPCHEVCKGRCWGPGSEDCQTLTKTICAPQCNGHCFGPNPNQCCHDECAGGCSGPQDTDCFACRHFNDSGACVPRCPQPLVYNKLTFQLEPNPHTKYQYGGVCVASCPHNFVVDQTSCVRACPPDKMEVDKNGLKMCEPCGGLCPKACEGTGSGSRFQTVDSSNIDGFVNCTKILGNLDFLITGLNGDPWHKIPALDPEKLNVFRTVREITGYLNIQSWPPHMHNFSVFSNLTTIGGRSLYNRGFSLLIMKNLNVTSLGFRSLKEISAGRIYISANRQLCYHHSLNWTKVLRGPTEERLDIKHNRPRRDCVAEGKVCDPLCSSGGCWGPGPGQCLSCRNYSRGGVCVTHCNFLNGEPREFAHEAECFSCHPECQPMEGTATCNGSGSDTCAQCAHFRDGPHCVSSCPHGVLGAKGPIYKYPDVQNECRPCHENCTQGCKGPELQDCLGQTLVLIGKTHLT
In words: ELISA, HER3-Fc coated at 50 ng per well, GMB301 from 3.3 nM to 6.5 pM, HRP anti-human F(ab')2 detection. Here is the method:
GMB301 was incubated for 1 hour at 37° C. in Maxisorp® plates (Nunc) coated wells with 50 ng human HER3-Fc (recombinant HER3 extracellular domain Fc fusion, R&D systems).
Bound GMB301 antibody were detected by a conjugated HRP-F(ab′)2 goat anti human IgG F(ab′)2 specific (Interchim). After two hours at 37° C. and three washes with PBS-Tween₂₀ 0.5%, TMB (3,3,5,5-tetramethylbenzidine, Sigma) was used as substrate for detecting HRP activity and 1M H₂SO₄ was added to stop the reaction and plate was read at 450 nm.

T1 sequence (P21860 20-643): as above

B1: GMB301 (chimeric low-fucose anti-human HER3 antibody) (antibody, human IgG1, kappa, V domains shown)
VH: EVKLVESGGGLVQPGGSLKLSCAASGFTFSSYTMSWVRQTPEKRLEWVAYISDGGGVTYYPDTIKGRFTISRDNAKNTLYLQMSSLKSEDTAMYYCARDRYGLFAYWGQGTLVTVSA
VL: DIVMTQSQKFMSTSVGDRVSITCKASQNVGIAVAWYQQKPGQSPKLLIYSASNRYTGVPDRFTGSGSGTDFTLTISNMQSEDLADYFCQQYSNYPYTFGGGTKLEIKR
modifications: low-fucose N-glycan (produced in YB2/0 cells)
notes: also called mAb GMB301; low-fucose chimerized antibody GMB301
As a reminder, the EC50 is the concentration needed to bring the measured effect to its halfway point. As for B1, the EC50 in assay [1] and in assay [2] was 190 pM throughout.

Values taken from patent US20180155433A1 (GAMAMABS PHARMA, published 2018).
